Test results taken from patent US20170247441A1 (Hoffmann-La Roche, published 2017).

T1: human ANG2-RBD-Fc-region fusion (human, UniProt O15123 275-496, limits assumed)
T1 construct: not shown: Fc-region
T1 sequence: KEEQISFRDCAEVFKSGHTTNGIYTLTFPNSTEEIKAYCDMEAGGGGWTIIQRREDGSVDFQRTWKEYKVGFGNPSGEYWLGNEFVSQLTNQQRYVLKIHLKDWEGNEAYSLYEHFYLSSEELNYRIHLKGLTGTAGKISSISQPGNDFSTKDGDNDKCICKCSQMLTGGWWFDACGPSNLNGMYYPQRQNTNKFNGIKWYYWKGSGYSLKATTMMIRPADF


What was measured:
[1] = target: T1, human ANG2-RBD-Fc-region fusion; test: SPR, human ANG2-RBD-Fc captured, 1:1 model
[2] = target: T1, human ANG2-RBD-Fc-region fusion; test: SPR, human ANG2; ANG2/VEGF bispecific CrossMab

Binder	koff [1] [s⁻¹]	kon [1] [M⁻¹ s⁻¹]	t1/2 [1] [s]	Kd [1] [nM]	t1/2 (S) [1] [s]	Kd [2] [nM]	koff [2] [s⁻¹]	kon [2] [M⁻¹ s⁻¹]	t1/2 [2] [s]
0025 (Fab, CrossFab CL-CH1, valency 1; differences VH: T28N, T30V; VL: wt) heavy: not shown light: SYVLTQPPSVSVAPGQTARITCGGNNIGSKSVHWYQQKPGQAPVLVVYDDSDRPSGIPERFSGSNSGNTATLTISRVEAGDEADYYCQVWDSSSDHWVFGGGTKLTVLSSASTKGPSVFPLAPSSKSTSGGTAALGCLVKDYFPEPVTVSWNSGALTSGVHTFPAVLQSSGLYSLSSVVTVPSSSLGTQTYICNVNHKPSNTKVDKKVEPKSC	0.0702	1.87e+06	10						
0027 (Fab, CrossFab CL-CH1, valency 1; differences VH: T28N, T30K; VL: wt) heavy: not shown light: SYVLTQPPSVSVAPGQTARITCGGNNIGSKSVHWYQQKPGQAPVLVVYDDSDRPSGIPERFSGSNSGNTATLTISRVEAGDEADYYCQVWDSSSDHWVFGGGTKLTVLSSASTKGPSVFPLAPSSKSTSGGTAALGCLVKDYFPEPVTVSWNSGALTSGVHTFPAVLQSSGLYSLSSVVTVPSSSLGTQTYICNVNHKPSNTKVDKKVEPKSC	0.165	2.4e+06	4						
0028 (Fab, CrossFab CL-CH1, valency 1; differences VH: T30K; VL: wt) heavy: not shown light: SYVLTQPPSVSVAPGQTARITCGGNNIGSKSVHWYQQKPGQAPVLVVYDDSDRPSGIPERFSGSNSGNTATLTISRVEAGDEADYYCQVWDSSSDHWVFGGGTKLTVLSSASTKGPSVFPLAPSSKSTSGGTAALGCLVKDYFPEPVTVSWNSGALTSGVHTFPAVLQSSGLYSLSSVVTVPSSSLGTQTYICNVNHKPSNTKVDKKVEPKSC	0.259	1.81e+06	3						
0040 (Fab, CrossFab CL-CH1, valency 1; differences VH: S100dP, G100jA, T28N, T30V; VL: wt) heavy: not shown light: SYVLTQPPSVSVAPGQTARITCGGNNIGSKSVHWYQQKPGQAPVLVVYDDSDRPSGIPERFSGSNSGNTATLTISRVEAGDEADYYCQVWDSSSDHWVFGGGTKLTVLSSASTKGPSVFPLAPSSKSTSGGTAALGCLVKDYFPEPVTVSWNSGALTSGVHTFPAVLQSSGLYSLSSVVTVPSSSLGTQTYICNVNHKPSNTKVDKKVEPKSC	0.00592	2.59e+06	117	2.3					
0042 (Fab, CrossFab CL-CH1, valency 1; differences VH: S100dP, G100jA, T28N, T30K; VL: wt) heavy: not shown light: SYVLTQPPSVSVAPGQTARITCGGNNIGSKSVHWYQQKPGQAPVLVVYDDSDRPSGIPERFSGSNSGNTATLTISRVEAGDEADYYCQVWDSSSDHWVFGGGTKLTVLSSASTKGPSVFPLAPSSKSTSGGTAALGCLVKDYFPEPVTVSWNSGALTSGVHTFPAVLQSSGLYSLSSVVTVPSSSLGTQTYICNVNHKPSNTKVDKKVEPKSC	0.0128	3.22e+06	54						
0057 (Fab, CrossFab CL-CH1, valency 1; differences VH: S100dP, G100jA, T28N, T30A, D100bE; VL: wt) heavy: not shown light: SYVLTQPPSVSVAPGQTARITCGGNNIGSKSVHWYQQKPGQAPVLVVYDDSDRPSGIPERFSGSNSGNTATLTISRVEAGDEADYYCQVWDSSSDHWVFGGGTKLTVLSSASTKGPSVFPLAPSSKSTSGGTAALGCLVKDYFPEPVTVSWNSGALTSGVHTFPAVLQSSGLYSLSSVVTVPSSSLGTQTYICNVNHKPSNTKVDKKVEPKSC	0.0948	3.28e+06	7						
0058 (Fab, CrossFab CL-CH1, valency 1; differences VH: S100dP, G100jA, T28N, T30A, D100bT; VL: wt) heavy: not shown light: SYVLTQPPSVSVAPGQTARITCGGNNIGSKSVHWYQQKPGQAPVLVVYDDSDRPSGIPERFSGSNSGNTATLTISRVEAGDEADYYCQVWDSSSDHWVFGGGTKLTVLSSASTKGPSVFPLAPSSKSTSGGTAALGCLVKDYFPEPVTVSWNSGALTSGVHTFPAVLQSSGLYSLSSVVTVPSSSLGTQTYICNVNHKPSNTKVDKKVEPKSC	0.0383	1.8e+06	18						
0060 (Fab, CrossFab CL-CH1, valency 1; differences VH: S100dP, G100jA, T28N, T30A, D100bE; VL: D50T) heavy: not shown light: SYVLTQPPSVSVAPGQTARITCGGNNIGSKSVHWYQQKPGQAPVLVVYDTSDRPSGIPERFSGSNSGNTATLTISRVEAGDEADYYCQVWDSSSDHWVFGGGTKLTVLSSASTKGPSVFPLAPSSKSTSGGTAALGCLVKDYFPEPVTVSWNSGALTSGVHTFPAVLQSSGLYSLSSVVTVPSSSLGTQTYICNVNHKPSNTKVDKKVEPKSC	0.0786	3.72e+06	9						
0061 (Fab, CrossFab CL-CH1, valency 1; differences VH: S100dP, G100jA, T28N, T30A, D100bT; VL: D50T) heavy: not shown light: SYVLTQPPSVSVAPGQTARITCGGNNIGSKSVHWYQQKPGQAPVLVVYDTSDRPSGIPERFSGSNSGNTATLTISRVEAGDEADYYCQVWDSSSDHWVFGGGTKLTVLSSASTKGPSVFPLAPSSKSTSGGTAALGCLVKDYFPEPVTVSWNSGALTSGVHTFPAVLQSSGLYSLSSVVTVPSSSLGTQTYICNVNHKPSNTKVDKKVEPKSC	0.0314	1.8e+06	22						
0074 (Fab, CrossFab CL-CH1, valency 1; differences VH: S100dP, G100jA, T28N, T30A, D100bS; VL: wt) heavy: not shown light: SYVLTQPPSVSVAPGQTARITCGGNNIGSKSVHWYQQKPGQAPVLVVYDDSDRPSGIPERFSGSNSGNTATLTISRVEAGDEADYYCQVWDSSSDHWVFGGGTKLTVLSSASTKGPSVFPLAPSSKSTSGGTAALGCLVKDYFPEPVTVSWNSGALTSGVHTFPAVLQSSGLYSLSSVVTVPSSSLGTQTYICNVNHKPSNTKVDKKVEPKSC	0.0366	2.27e+06	19						
XAng2-0017 (Fab, CrossFab CL-CH1, valency 1; VL: wt) heavy: not shown light: SYVLTQPPSVSVAPGQTARITCGGNNIGSKSVHWYQQKPGQAPVLVVYDDSDRPSGIPERFSGSNSGNTATLTISRVEAGDEADYYCQVWDSSSDHWVFGGGTKLTVLSSASTKGPSVFPLAPSSKSTSGGTAALGCLVKDYFPEPVTVSWNSGALTSGVHTFPAVLQSSGLYSLSSVVTVPSSSLGTQTYICNVNHKPSNTKVDKKVEPKSC	0.0357	3.03e+06	19						
XAng2-0026 (Fab, CrossFab CL-CH1, valency 1; differences VH: T28N, T30A; VL: wt) heavy: not shown light: SYVLTQPPSVSVAPGQTARITCGGNNIGSKSVHWYQQKPGQAPVLVVYDDSDRPSGIPERFSGSNSGNTATLTISRVEAGDEADYYCQVWDSSSDHWVFGGGTKLTVLSSASTKGPSVFPLAPSSKSTSGGTAALGCLVKDYFPEPVTVSWNSGALTSGVHTFPAVLQSSGLYSLSSVVTVPSSSLGTQTYICNVNHKPSNTKVDKKVEPKSC	0.0371	2.03e+06	19						
XAng2-0033 (Fab, CrossFab CL-CH1, valency 1; differences VH: T28N, S100dP, G100jA; VL: wt) heavy: not shown light: SYVLTQPPSVSVAPGQTARITCGGNNIGSKSVHWYQQKPGQAPVLVVYDDSDRPSGIPERFSGSNSGNTATLTISRVEAGDEADYYCQVWDSSSDHWVFGGGTKLTVLSSASTKGPSVFPLAPSSKSTSGGTAALGCLVKDYFPEPVTVSWNSGALTSGVHTFPAVLQSSGLYSLSSVVTVPSSSLGTQTYICNVNHKPSNTKVDKKVEPKSC	0.00225	753000	308						
XAng2-0155 (Fab, CrossFab CL-CH1, valency 1; differences VH: S100dP, G100jA, T28N, T30A; VL: D50T) heavy: not shown light: QPGLTQPPSVSVAPGQTARITCGGNNIGSKSVHWYQQKPGQAPVLVVYDTSDRPSGIPERFSGSNSGNTATLTISRVEAGDEADYYCQVWDSSSDHYVFGTGTKVTVLSSASTKGPSVFPLAPSSKSTSGGTAALGCLVKDYFPEPVTVSWNSGALTSGVHTFPAVLQSSGLYSLSSVVTVPSSSLGTQTYICNVNHKPSNTKVDKKVEPKSC	0.0319	746000			22				
XAng2-0156 (Fab, CrossFab CL-CH1, valency 1; differences VH: S100dP, G100jA, T28N, T30A, D100bS; VL: D50T) heavy: not shown light: QPGLTQPPSVSVAPGQTARITCGGNNIGSKSVHWYQQKPGQAPVLVVYDTSDRPSGIPERFSGSNSGNTATLTISRVEAGDEADYYCQVWDSSSDHYVFGTGTKVTVLSSASTKGPSVFPLAPSSKSTSGGTAALGCLVKDYFPEPVTVSWNSGALTSGVHTFPAVLQSSGLYSLSSVVTVPSSSLGTQTYICNVNHKPSNTKVDKKVEPKSC	0.0031	675000			224				
Xang2-0165 (bispecific antibody, human IgG1, kappa, L234A L235A, ANG2/VEGF bispecific CrossMab CL-CH1, valency for ANG2 1; ANG2 VH: S100dP, G100jA, T30A, T28N; VL: D50T; VEGF: wt2) heavy 1: not shown light 1: SYVLTQPPSVSVAPGQTARITCGGNNIGSKSVHWYQQKPGQAPVLVVYDTSDRPSGIPERFSGSNSGNTATLTISRVEAGDEADYYCQVWDSSSDHWVFGGGTKLTVLSSASTKGPSVFPLAPSSKSTSGGTAALGCLVKDYFPEPVTVSWNSGALTSGVHTFPAVLQSSGLYSLSSVVTVPSSSLGTQTYICNVNHKPSNTKVDKKVEPKSC heavy 2: EVQLVESGGGLVQPGGSLRLSCAASGYDFTHYGMNWVRQAPGKGLEWVGWINTYTGEPTYAADFKRRFTFSLDTSKSTAYLQMNSLRAEDTAVYYCAKYPYYYGTSHWYFDVWGQGTLVTVSSASTKGPSVFPLAPSSKSTSGGTAALGCLVKDYFPEPVTVSWNSGALTSGVHTFPAVLQSSGLYSLSSVVTVPSSSLGTQTYICNVNHKPSNTKVDKKVEPKSCDKTHTCPPCPAPEAAGGPSVFLFPPKPKDTLMASRTPEVTCVVVDVSHEDPEVKFNWYVDGVEVHNAKTKPREEQYNSTYRVVSVLTVLAQDWLNGKEYKCKVSNKALGAPIEKTISKAKGQPREPQVYTLPPCRDELTKNQVSLWCLVKGFYPSDIAVEWESNGQPENNYKTTPPVLDSDGSFFLYSKLTVDKSRWQQGNVFSCSVMHEALHNAYTQKSLSLSPGK light 2: not shown						4	0.00112	302000	619
Xang2-0166 (bispecific antibody, human IgG1, kappa, L234A L235A, ANG2/VEGF bispecific CrossMab CL-CH1, valency for ANG2 1; ANG2 VH: S100dP, G100jA, T30A, T28N, D100bS; VL: D50T; VEGF: wt2) heavy 1: not shown light 1: SYVLTQPPSVSVAPGQTARITCGGNNIGSKSVHWYQQKPGQAPVLVVYDTSDRPSGIPERFSGSNSGNTATLTISRVEAGDEADYYCQVWDSSSDHWVFGGGTKLTVLSSASTKGPSVFPLAPSSKSTSGGTAALGCLVKDYFPEPVTVSWNSGALTSGVHTFPAVLQSSGLYSLSSVVTVPSSSLGTQTYICNVNHKPSNTKVDKKVEPKSC heavy 2: EVQLVESGGGLVQPGGSLRLSCAASGYDFTHYGMNWVRQAPGKGLEWVGWINTYTGEPTYAADFKRRFTFSLDTSKSTAYLQMNSLRAEDTAVYYCAKYPYYYGTSHWYFDVWGQGTLVTVSSASTKGPSVFPLAPSSKSTSGGTAALGCLVKDYFPEPVTVSWNSGALTSGVHTFPAVLQSSGLYSLSSVVTVPSSSLGTQTYICNVNHKPSNTKVDKKVEPKSCDKTHTCPPCPAPEAAGGPSVFLFPPKPKDTLMASRTPEVTCVVVDVSHEDPEVKFNWYVDGVEVHNAKTKPREEQYNSTYRVVSVLTVLAQDWLNGKEYKCKVSNKALGAPIEKTISKAKGQPREPQVYTLPPCRDELTKNQVSLWCLVKGFYPSDIAVEWESNGQPENNYKTTPPVLDSDGSFFLYSKLTVDKSRWQQGNVFSCSVMHEALHNAYTQKSLSLSPGK light 2: not shown						49	0.0135	275000	51
